This passage reports Mean 2 and Δ Mean results from patent US20050152926A1.

In experiment [1] the target is HLA A2 on RMA-S/A2 cells (human). As to the kind of experiment: BB7.2 staining of RMA-S/A2 cells without peptide (peptide-free control); FIG 1(i).
Experiment [2] has the same target. As to the kind of experiment: BB7.2 staining of RMA-S/A2 cells without peptide (peptide-free control); FIG 2(i).
For experiment [3] the target is unchanged. The experiment in a line: BB7.2 staining of RMA-S/A2 cells without peptide (peptide-free control); FIG 3(i).

Regarding “anti-A2 specific BB7.2 monoclonal antibody”, the Mean 2 came to 380 in experiment [1], 311 in experiment [2] and 282 in experiment [3]. In addition, the Δ Mean in experiment [1] was determined as 193; in experiment [2], 154; in experiment [3], 151.
